Data from patent US20120064075.

Biological target: type IV collagen

B1: murine chimera FIXGla-Egf1FVIIa (protein)
chain: MKHLNTVMAESPALITIFLLGYLLSTECAVFLDRENATKILTRPKRYNSGKLEEFVRGNLERECIEERCSFEEAREVFENTEKTTEFWKQYVDGDQCESNPCLNGGICKDDISSYECWCQVGFEGRNCEFSKNEQLICANENGDCDQYCRDHVGTKRTCSCHEDYTLQPDEVSCKPKVEYPCGRIPVVEKRNSSSRQGRRKRRKRIVGGNVCPKGECPWQAVLKINGLLLCGAVLLDARWIVTAAHCFDNIRYWGNITVVMGEHDFSEKDGDEQVRRVTQVIMPDKYIRGKINHDIALLRLHRPVTFTDYVVPLCLPEKSFSENTLARIRFSRVSGWGQLLDRGATALELMSIEVPRLMTQDCLEHAKHSSNTPKITENMFCAGYMDGTKDACKGDSGGPHATHYHGTWYLTGVVSWGEGCAAIGHIGVYTRVSQYIDWLVRHMDSKLQVGVFRLPLL
B1 was tested, and the “ELISA measurements of expressed chimera in blood 10 minutes after a bolus of FIX” value was “a 4-fold increase in the chimeric protein was measured”.
